Results published in publication PMC12589307, “^1H, ^13C, and ^15N resonance assignment of the C terminal region of the disordered postsynaptic scaffold protein GKAP” (Biomolecular Nmr Assignments, 2025).
Where no end group is shown, it is not given here.

Biological target: T1, Shank1-PDZ (UniProt Q9WV48, residues 654-768) (UniProt Q9WV48 654-768)
T1 construct: Shank1 PDZ domain, UniProt Q9WV48, residues 654-768; 100% identical with the human homolog Q9Y566 residues 654-768; also called Shank-PDZ; source: production and purification by the protocol of Sánta et al. 2022
T1 sequence (looked up): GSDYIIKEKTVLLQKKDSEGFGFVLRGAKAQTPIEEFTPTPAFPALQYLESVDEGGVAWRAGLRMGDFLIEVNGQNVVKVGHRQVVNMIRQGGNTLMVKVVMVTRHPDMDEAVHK
Assay: BLI; BLItz instrument, NTA biosensors; His-tagged GKAP-Ct43 immobilised as bait at 200 nM; Shank1-PDZ at 4, 2, 1 and 0.5 uM; 50 mM NaPi pH 7.4, 20 mM NaCl, 20 mM imidazole, 0.1% BSA, 0.02% Tween20; room temperature (no temperature control); global fit, average of three independent measurements
Conditions: both partners purified

B1: GKAP-Ct43, C-terminal 43 residues of Rattus norvegicus GKAP, with 6xHis tag kept (domain or fragment)
chain: GSHMSSQRQEARKRLMAAKRAASVRQNSATESAESIEIYIPEAQTRL
modifications: also: 6xHis tag named, not in given chain
notes: vector-derived residues that remain N-terminal after TEV cleavage; in the uncleaved BLI construct they follow the 6xHis tag and the TEV site; Guanylate kinase-associated protein GKAP (rGKAP1a), Rattus norvegicus, UniProt P97836, residues 950-992; 100% identical to human DLGAP1 O14490 residues 935-977; Modified pET-15b vector with 6xHis tag and TEV site; also called rGKAP1a C-terminus; source: TEV …
  Kd: 3.1 ± 0.7 µM
